This note sets out measurements from the RNAGym collection of RNA variant scans (doi:10.7554/elife.80360).

B1: HDV Ribozyme (parent)
chain: GGCCGGCAUGGUCCCAGCCUCCUCGCUGGCGCCGGCUGGGCAACAUUCCGAGGGGACCGUCCCCUCGGUAAUGGCGAAUGGGACCCA

In this series the parent is B1. Description: self-cleavage, relative activity (ratio to wild type); higher = more cleavage; co-transcriptional.
Consider G35A A42C, for which the self-cleavage stood at 0.277. In the case of G35A A42U it was 0.166; in that of G35A C86U, 0.712. In the case of C36G A77C it was 0; in that of G34U C57A, 0.114.

Turning to C36G G59C, the self-cleavage was determined as 0.0755. As to U37A C61G, the self-cleavage came out at 0.151. The value for U37A C61U was 0.277; that for G35C C66G was 0.228; that for C36G A45U was 0.0791.

In the case of G34C C66G, the self-cleavage was found to be 0.169. The value for C36G G52A was 0.271; that for C36G C49A was 0.138. The value for C36U C64G was 0.606; that for C36G G68U was 0.0615; that for G35A C75G was 0.218.

Consider C36G G50U, for which the self-cleavage worked out at 0.101. In the case of G35C C62U it was 0.0665; in that of G35C C62G, 0.0594; in that of C36A A42C, 0.0583. In the case of C36A A42G it was 0.113. Consider C36U C49U, for which the self-cleavage was determined as 0.743. The value for C36U C49G was 0.607; that for G34U C85G was 0.128. In the case of G34U C85A it was 0.164; in that of G35U G54A, 0.499; in that of U37A G82U, 0.166. In the case of G35A C57A it was 0.545. For G35A G50U, the self-cleavage was 0.629. Turning to G35A C63G, the self-cleavage worked out at 0.346. In the case of G35U A78U, the self-cleavage was determined as 0.0545. The value for G35U A78C was 0.133; that for C36A C84U was 0.163.

Regarding G35A G39C, the self-cleavage was found to be 0.113. As to C36U A45G, the self-cleavage worked out at 0.522. In the case of G34C A83U it was 0.0755; in that of G35U G80U, 0.223; in that of G34U C63G, 0.0475. On to G35U A42U, for which the self-cleavage stood at 0.246. In the case of G35U A42G it was 0.17; in that of U37A G68U, 0.0845; in that of G35U C61A, 0.428.

For G34U C49A, the self-cleavage came to 0.151. The value for C36G C41A was 0.248. In the case of G35U A43C it was 0.208.

G35U U47C: the self-cleavage came to 0.189. In the case of U37A U47C it was 0.289; in that of G35U C41A, 0.3. The value for G35U C41G was 0.188. In the case of C36G C57U it was 0.128; in that of G35C U60A, 0.192.

G35C C86A: the self-cleavage is 0.212. C36A G81U: the self-cleavage stood at 0.0523. Take G35A A45U: the self-cleavage turned out to be 0.406.

On to C36A U60G, for which the self-cleavage amounted to 0.178. In the case of G35U G38U it was 0; in that of G35U G38C, 0.0536; in that of G35U G73C, 0.185. In the case of G34C G81C it was 0.115. The value for G34C G68U was 0.199; that for G35C C49A was 0.119; that for G35A A77G was 0.277.

Turning to G35A A56G, the self-cleavage was 0.769.

Consider G35U A87C, for which the self-cleavage amounted to 0.432. In the case of G34C A71U it was 0.095. In the case of G34C U46A it was 0.158. The value for U37A G40A was 0.305; that for G35C U46G was 0.0831; that for C36A U72G was 0.0978. For C36A U72A, the self-cleavage is 0.277. The value for C36A U72C was 0.0405. On to G35A U79G, for which the self-cleavage worked out at 0.397.

Turning to G35U U72A, the self-cleavage stood at 0.172. For the variant C36U A71U, the self-cleavage amounted to 0.471. Turning to G34C G76U, the self-cleavage worked out at 0.358. Turning to G34C G76C, the self-cleavage was found to be 0.332. In the case of G34C U79A, the self-cleavage worked out at 0.104. The value for C36A U46C was 0.166. In the case of G35C C75A it was 0.225; in that of U37A U79A, 0.246; in that of G35A A43U, 0.108. In the case of G35A A43G it was 0.185; in that of G35A U46C, 0.289. As to G35A U46G, the self-cleavage worked out at 0. In the case of G35U G74C it was 0.272; in that of U37A A70G, 0.214. The value for G35U C48U was 0.554; that for G34U A71C was 0.161. In the case of U37A A83U it was 0.104. For the variant U37A A83G, the self-cleavage stood at 0.115. In the case of U37A A83C it was 0.0378; in that of G34C G59A, 0.143; in that of G35C G52C, 0.128. For G35C G52A, the self-cleavage turned out to be 0.233. In the case of G35C G52U it was 0.318; in that of C36G C66A, 0.162; in that of G34U U72G, 0.297. The value for C36G C62A was 0.0791; that for G35A G53U was 0.736; that for G35C A45U was 0.122. The value for G35C A45C was 0; that for G35C G38U was 0.0875; that for G35A C48U was 0.499. On to G35A C48G, for which the self-cleavage stood at 0.539. Consider C36U G76A, for which the self-cleavage was found to be 0.697.

Consider G34C C44A, for which the self-cleavage is 0.0831. The value for C36G U46C was 0; that for U37A C64A was 0.0723; that for U37A G76A was 0.172. In the case of U37A G76C it was 0.203. The value for G35A G80U was 0.151. As for G35A G80C, the self-cleavage was determined as 0.162. Regarding G35A G80A, the self-cleavage is 0.196.

Regarding G34U C58U, the self-cleavage stood at 0.153.

In the case of G35U C36G, the self-cleavage was 0.104. In the case of C36U G39C it was 0.119; in that of G35C U47C, 0.237. Turning to G35C U47G, the self-cleavage was 0.0923. In the case of C36A G55C it was 0.196; in that of C36A G55U, 0.124. The value for U37A C86G was 0.0875; that for C36G G76U was 0.277.

Take C36G G76A: the self-cleavage amounted to 0.162. For C36U G50A, the self-cleavage was 0.673. In the case of C36U G50C it was 0.612; in that of G34U C62A, 0.0831. In the case of G34U C62U, the self-cleavage was determined as 0.229. In the case of G35C G80U it was 0.043; in that of G35C G80A, 0.212; in that of G35C G80C, 0.0992. For the variant G35C G74C, the self-cleavage is 0.17. With G35C G81U, the self-cleavage amounted to 0.0739. Turning to C36G A87C, the self-cleavage was 0.146. The value for G34C C58U was 0.181; that for G35C C84G was 0.116; that for G35C C84A was 0.271. In the case of C36U G40C, the self-cleavage came out at 0.0959.

Turning to G34C A78U, the self-cleavage amounted to 0.0475. In the case of U37A U60G it was 0.192; in that of G35U A77C, 0.0875; in that of C36U G55U, 0.8. In the case of G34C G39C, the self-cleavage was found to be 0.0554.

For the variant G34C G39A, the self-cleavage was 0.0536. The value for G34U G76U was 0.132; that for C36G U37G was 0.213; that for G35C A56C was 0.302. C36G C85A: the self-cleavage was 0.251. The value for C36G C85G was 0.161; that for G34C C36G was 0.095. The value for C36G C44U was 0.0426; that for U37A C41G was 0.0723. Consider C36U A70U, for which the self-cleavage turned out to be 0.702. The value for G35A U65A was 0.61; that for U37A G74C was 0.212; that for U37A C84U was 0.116. As to G34U C66U, the self-cleavage is 0.166. The value for G35A A51G was 0.673; that for G35A C41A was 0.562. In the case of U37A A43C it was 0.0723; in that of U37A A43G, 0.0554; in that of U37A A43U, 0.0437. The value for C36G U47C was 0.128. Regarding C36A G39A, the self-cleavage was found to be 0.113. U37A U72G: the self-cleavage stood at 0.302. In the case of C36A C49G it was 0.0297; in that of G35C G68A, 0.17. The value for G34U G59A was 0.203.
